According to patent publication US20240336696A1 (PXRADIA MAB TECHNOLOGIES, published 2024):

Molecular target: T1, CD20 on human B-cell lines (JOK-1, Raji, Ramos) (human, UniProt P11836 1-297)
T1 sequence (looked up): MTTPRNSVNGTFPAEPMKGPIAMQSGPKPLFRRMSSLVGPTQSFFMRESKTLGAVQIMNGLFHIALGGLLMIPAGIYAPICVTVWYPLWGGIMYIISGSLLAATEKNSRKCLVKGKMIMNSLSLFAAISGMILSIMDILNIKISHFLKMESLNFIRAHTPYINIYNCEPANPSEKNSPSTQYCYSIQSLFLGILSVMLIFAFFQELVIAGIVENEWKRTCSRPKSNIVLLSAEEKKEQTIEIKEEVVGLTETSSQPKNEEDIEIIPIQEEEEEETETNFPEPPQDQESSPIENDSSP
Test: cell-based or functional assay

B1: chRituximab-HD (chimeric HD antibody identical to chRituximab except for the addition of the HD peptide rs-T15) (antibody, human IgG1, kappa)
heavy: not shown
light: QIVLSQSPAILSASPGEKVTMTCRASSSVSYIHWFQQKPGSSPKPWIYATSNLASGVPVRFSGSGSGTSYSLTISRVEAEDAATYYCQQWTSNPPTFGGGTKLEIKRTVAAPSVFIFPPSDEQLKSGTASVVCLLNNFYPREAKVQWKVDNALQSGNSQESVTEQDSKDSTYSLSSTLTLSKADYEKHKVYACEVTHQGLSSPVTKSFNRGEC
- percent of apoptotic cells against chRituximab, Raji cells, 5 µg/mL: 2.5 fold
